In the supplement of paper PMC10065799, “High-throughput profiling of sequence recognition by tyrosine kinases and SH2 domains using bacterial peptide display” (eLife, 2023):
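Throughout, for SH2 binding enrichment of the phosphorylated peptide, bacterial display: peptide library displayed on the E. coli surface as eCPX fusions, selected cells deep-sequenced, score is each peptide's frequency after selection divided by its frequency in the input.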
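Throughout, for phosphorylation enrichment, bacterial display: 11-residue human phosphosite peptides and single-mutation variants displayed on the E. coli surface, counted by deep sequencing, each peptide's frequency after selection divided by its frequency in the unselected input library; frequency after pTyr selection over input frequency; kinase dosed for 20-30% of maximal phosphorylation in three min.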

What follows are sequences tested against SHP2-C SH2 (assay: SH2 binding enrichment of the phosphorylated peptide, bacterial display (enrichment ratio); higher = better substrate or ligand; peptides without Tyr show the background).
ALMGLYHGQVL [HADHA_Y343] was tested, and the SH2 binding enrichment was 0.89.
In the case of TVVVPYEPPEV [TP53_Y220_S215T], the SH2 binding enrichment is reported as 0.701.
PATINYPFEKG [NDUFS8_Y84] showed an SH2 binding enrichment of 0.587.
GSRGKYFSGFR [ATM_Y332_S333F] showed an SH2 binding enrichment of 0.833.
QLQTNYPSSDN [MAX_Y115] was tested, and the SH2 binding enrichment was 0.513.
GYDHSYYFIAT [ESD_Y262] was tested, and the SH2 binding enrichment was 0.727.
In the case of IFGVSYGEFRF [CFTR_Y512_D513G_YF], the SH2 binding enrichment is reported as 1.08.
Work on RPYSPYIIRGM [LRP5_Y1531_R1529S] yielded an SH2 binding enrichment of 0.953.
Sequence RHPLDYLRQYP [NARS2_Y138_E137D] has an SH2 binding enrichment of 1.71.
In the case of ISPPVYLTNEW [NRK_Y885], the SH2 binding enrichment is reported as 1.11.
SMGHRYIEVFR [HNRNPF_Y82_K87R] showed an SH2 binding enrichment of 1.33.
Work on PPVVNYEEDAR [FER_Y402] yielded an SH2 binding enrichment of 1.01.
In the case of ALVFLSFCIIF [SIGLEC12_Y494_Y494S], the SH2 binding enrichment is reported as 1.39.
Sequence PEADKYHLTFA [FGG_Y300_R301H_YF] has an SH2 binding enrichment of 0.254.
Sequence LQPNNCQFCGG [CSF1R_Y969_Y969C] has an SH2 binding enrichment of 0.865.
In the case of VASSLYDIFAR [GLB1_Y294_L297F], the SH2 binding enrichment is reported as 0.884.
Sequence YIRKDYEACKA [BBS4_Y48] has an SH2 binding enrichment of 1.11.
With IIRQLYLKWHP [SACS_Y4333_R4331Q] the SH2 binding enrichment was 1.59.
AVLSLYASGRN [ACTA1_Y145_T150N] showed an SH2 binding enrichment of 0.976.
Sequence GGFTRYCDGKK [PROS1_Y266_C265R_YF] has an SH2 binding enrichment of 0.881.
In the case of LKMLVYMDMSK [LRRC7_Y234_L235M], the SH2 binding enrichment is reported as 0.742.
PRIKTYMRPSP [TDP1_Y497_H493R] showed an SH2 binding enrichment of 0.948.
With DRPSEYAARQL [ANXA13_Y90] the SH2 binding enrichment was 0.699.
ADEEFYEIIAA [FEStide_F_2014] showed an SH2 binding enrichment of 0.605.
KFANSYRMEPL [TCTE3_Y87] gave an SH2 binding enrichment of 0.762.
SYKNKYGMVAQ [APOB_Y276] gave an SH2 binding enrichment of 0.786.
SKKVRYVVSKA [BARD1_Y156] gave an SH2 binding enrichment of 1.17.
For CGASGYSATST [CERT1_Y143_S138C], the SH2 binding enrichment was 0.756.
In the case of NGLVAYKDGKL [PMM2_Y76], the SH2 binding enrichment is reported as 0.669.
EFKDAYTFAAD [BRDT_Y335_K336T_YF] showed an SH2 binding enrichment of 0.713.
For ETLLFYGCRRS [POR_Y564_YF], the SH2 binding enrichment was 0.582.
NVQIVYKPVDL [MAPT_Y627_S622N] showed an SH2 binding enrichment of 0.738.
ALEHKYWALGQ [MAP1A_Y1555_Q1553H] was tested, and the SH2 binding enrichment was 0.814.

These sequences were tested against Hck (UniProt P08631) (assay: phosphorylation enrichment, bacterial display (enrichment ratio); higher = better substrate or ligand; peptides without Tyr show the background).
Hck, sequence (P08631 whole entry, looked up): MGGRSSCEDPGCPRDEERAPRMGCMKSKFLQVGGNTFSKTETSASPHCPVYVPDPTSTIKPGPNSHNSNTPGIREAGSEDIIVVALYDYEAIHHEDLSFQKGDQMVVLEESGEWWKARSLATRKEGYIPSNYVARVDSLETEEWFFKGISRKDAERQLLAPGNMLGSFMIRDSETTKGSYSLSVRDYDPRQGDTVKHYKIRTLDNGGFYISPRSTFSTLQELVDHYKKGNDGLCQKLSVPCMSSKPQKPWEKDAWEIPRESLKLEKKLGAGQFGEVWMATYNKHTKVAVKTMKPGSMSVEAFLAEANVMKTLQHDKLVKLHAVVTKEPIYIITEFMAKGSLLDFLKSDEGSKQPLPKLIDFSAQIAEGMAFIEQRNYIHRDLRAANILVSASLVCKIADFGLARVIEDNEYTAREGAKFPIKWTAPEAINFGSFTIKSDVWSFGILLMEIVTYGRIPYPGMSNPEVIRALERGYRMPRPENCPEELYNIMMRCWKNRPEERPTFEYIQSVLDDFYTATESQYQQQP
With ALMGLYHGQVL [HADHA_Y343] the phosphorylation enrichment was 1.64.
Sequence TVVVPYEPPEV [TP53_Y220_S215T] has a phosphorylation enrichment of 0.458.
PATINYPFEKG [NDUFS8_Y84] showed a phosphorylation enrichment of 0.342.
GSRGKYFSGFR [ATM_Y332_S333F] showed a phosphorylation enrichment of 0.351.
QLQTNYPSSDN [MAX_Y115] showed a phosphorylation enrichment of 0.527.
Sequence GYDHSYYFIAT [ESD_Y262] has a phosphorylation enrichment of 2.02.
Work on IFGVSYGEFRF [CFTR_Y512_D513G_YF] yielded a phosphorylation enrichment of 4.06.
Sequence RPYSPYIIRGM [LRP5_Y1531_R1529S] has a phosphorylation enrichment of 0.642.
With RHPLDYLRQYP [NARS2_Y138_E137D] the phosphorylation enrichment was 0.753.
ISPPVYLTNEW [NRK_Y885] showed a phosphorylation enrichment of 0.732.
In the case of SMGHRYIEVFR [HNRNPF_Y82_K87R], the phosphorylation enrichment is reported as 0.453.
Work on PPVVNYEEDAR [FER_Y402] yielded a phosphorylation enrichment of 0.64.
For ALVFLSFCIIF [SIGLEC12_Y494_Y494S], the phosphorylation enrichment was 0.466.
PEADKYHLTFA [FGG_Y300_R301H_YF] was tested, and the phosphorylation enrichment was 0.939.
For LQPNNCQFCGG [CSF1R_Y969_Y969C], the phosphorylation enrichment was 0.987.
Sequence VASSLYDIFAR [GLB1_Y294_L297F] has a phosphorylation enrichment of 8.55.
YIRKDYEACKA [BBS4_Y48] was tested, and the phosphorylation enrichment was 0.404.
IIRQLYLKWHP [SACS_Y4333_R4331Q] gave a phosphorylation enrichment of 1.12.
With AVLSLYASGRN [ACTA1_Y145_T150N] the phosphorylation enrichment was 0.688.
For GGFTRYCDGKK [PROS1_Y266_C265R_YF], the phosphorylation enrichment was 0.403.
LKMLVYMDMSK [LRRC7_Y234_L235M] was tested, and the phosphorylation enrichment was 0.802.
PRIKTYMRPSP [TDP1_Y497_H493R] showed a phosphorylation enrichment of 0.36.
DRPSEYAARQL [ANXA13_Y90] gave a phosphorylation enrichment of 0.428.
Work on ADEEFYEIIAA [FEStide_F_2014] yielded a phosphorylation enrichment of 3.26.
KFANSYRMEPL [TCTE3_Y87] gave a phosphorylation enrichment of 0.414.
Sequence SYKNKYGMVAQ [APOB_Y276] has a phosphorylation enrichment of 0.442.
SKKVRYVVSKA [BARD1_Y156] gave a phosphorylation enrichment of 0.372.
In the case of CGASGYSATST [CERT1_Y143_S138C], the phosphorylation enrichment is reported as 0.51.
Sequence NGLVAYKDGKL [PMM2_Y76] has a phosphorylation enrichment of 0.372.
Work on EFKDAYTFAAD [BRDT_Y335_K336T_YF] yielded a phosphorylation enrichment of 0.57.
ETLLFYGCRRS [POR_Y564_YF] gave a phosphorylation enrichment of 0.463.
NVQIVYKPVDL [MAPT_Y627_S622N] showed a phosphorylation enrichment of 0.477.
In the case of ALEHKYWALGQ [MAP1A_Y1555_Q1553H], the phosphorylation enrichment is reported as 0.621.
